According to the supplement of paper PMC9170038:

Test system: MS2 coat protein
Experiment: apparent KD of MS2 coat protein; designed switch direction (-1 OFF switch, 1 ON switch): -1; higher = weaker reporter binding
Summary of the method: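 On Illumina chips, designed RNA switches with common flanks were made by stalled E. coli RNA polymerase. Titrations with SNAP-549-labelled MS2 coat protein, doubling from 0.7 or 1.5 nM to 3 µM, were done with no input, with 200 uM small-molecule ligand, or with an oligonucleotide input. Apparent KD is the median per design over clusters, from curve fits of normalised cluster fluorescence.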

[1] = Eterna round: R95, input ligand: microRNA oligo, concentration not stated
[2] = Eterna round: R95, input ligand: FMN 200 uM
[3] = Eterna round: R95, input ligand: none
[4] = input ligand: microRNA oligo, concentration not stated

Sequence | apparent KD of MS2 coat protein (input ligand: FMN 200 uM) [nM] | apparent KD of MS2 coat protein (input ligand: none) [nM] | apparent KD of MS2 coat protein [1] [nM] | apparent KD of MS2 coat protein [2] [nM] | apparent KD of MS2 coat protein [3] [nM] | apparent KD of MS2 coat protein [4] [nM]
ACUAAUUGAGGAUAUACAUUGAUUUACAUGAGGAUCACCCAUGUUCAAACAUGUAUUUAUGUAGAAGGCAGAAGAA [JR_Ex5_Sub065] (Eterna round: R97, puzzle: Exclusion 5) | 23 | 17.5 |  |  |  | 
ACUAGAUGAGGAUAUGCAUAUUUUCGUGUUCUUCUAGGUUAACAUGAGGAUCACCCAUGUAGAAGGCGUCUAUA [Exclusion 2 - 22] (puzzle: Exclusion 2) |  |  | 21.3 |  |  | 
ACUAGCUUUUUGCAUAUUAGGUUUGUUGCUUCGUAUGUAACAUGAGGAUCACCCAUGUAUUACUGAUGUCGUCGUUU [JR_SV3TOV2_Sub091] (puzzle: Sensor v3, turn-off variant 2) |  |  | 17.3 | 20 | 16.9 | 
ACUAGGCGAGGAUAUACAUGCUUAACACAGCGAAAGCUGUGACAUGAGGAUCACCCAUGUAGAAGGCGCAAAUA [Enlaedondi] (puzzle: Exclusion 2) |  |  | 43.2 |  |  | 
ACUCAAUAGUAGGAUAUCAUCAAACUAUUGUGAUGAGAAGGACUAACAUGAGGAUCACCCAUGUUAACGUGAAG [Mod of Brourd 4 - Jieux - Exclusion 6] (Eterna round: R97, puzzle: Exclusion 6) | 23 | 20.3 |  |  |  | 
ACUCCCAUCGUGAGGAUAUUGAAGCGGGAAGCCGGCAAGAAGGUACAUGAGGAUCACCCAUGUGUGAACAGGAC [Eternabot (L1) Solution 48] (Eterna round: R97, puzzle: Brourd's mod of Exclusion 4) | 14.5 | 14.9 |  |  |  | 
ACUCGAGAAGGAUAUACAUGAGGAUCACCCAUGUUAACUCCCAAGGGCAUCUUAAAAGGUAGAAGGUCUUGAAA [Laonbeus] (puzzle: Exclusion 3) |  |  | 14 | 23.7 | 14.1 | 
ACUCUACAUGAGGAUCACCCAUGUGAGGAUAUCAAAGCCAGAGCGGAUCUCUGGUCCAUGAGAAGGUGCAUGGU [ElNandoxlusion 3 - Jieux - Exclusion 1] (Eterna round: R97, puzzle: Exclusion 1) | 73.4 | 22.3 |  |  |  | 
ACUUACUGAGGAUAUACAUAGAUUUACAUGAGGAUCACCCAUGUUCCUCUAAGUAUAUAUGUAGAAGGCAGAAGAU [Mat - Exclusion 5 - JL Mod - D39] (Eterna round: R97, puzzle: Exclusion 5) | 202 | 116 |  |  |  | 
ACUUACUGAGGAUAUACAUAGAUUUACAUGAGGAUCACCCAUGUUCCUCUAAGUAUAUAUGUAGAAGGCAGAAGGG [Mat - Exclusion 5 - JL Mod - D41] (Eterna round: R97, puzzle: Exclusion 5) | 55.6 | 166 |  |  |  | 
ACUUAUAGAGGAUAUACAGAUUAUUACAUGAGGAUCACCCAUGUUCUUCAAUGUAUAUAUGUAGAAGGCUAAGGAA [JL-ex5-4.23 Malcolm mod] (Eterna round: R97, puzzle: Exclusion 5) | 381 | 82.2 |  |  |  | 
ACUUAUAGAGGAUAUACAGUUUAUUACAUGAGGAUCACCCAUGUUCUUCAAUGUAUAUAAGUAGAAGGCUAAGGAA [EX-5 Malc#5] (Eterna round: R96, puzzle: Exclusion 5) |  |  |  |  |  | 33.7
ACUUAUAGAGGAUAUACAGUUUAUUACAUGAGGAUCACCCAUGUUCUUCAAUGUAUAUAAGUAGAAGGCUAAGGAA [EX-5 Malc#5] (puzzle: Exclusion 5) |  |  | 25.2 | 132 | 30 | 
ACUUAUUGAGGAUAUACAGAUUAUUACAUGAGGAUCACCCAUGUUCUUCAAUGUAUAUAUGUAGAAGGCAGAAGUA [Mat - Exclusion 5 - JL Mod - D14] (Eterna round: R97, puzzle: Exclusion 5) | 317 | 88.9 |  |  |  | 
ACUUAUUGAGGAUAUACAUAAAUUUACAUGAGGAUCACCCAUGUUCUUCUAUGUAUAUAUGUAGAAGGCAGAAGAA [JL-ex5-4.31 Malcolm mod] (Eterna round: R97, puzzle: Exclusion 5) | 27 | 18.5 |  |  |  | 
ACUUAUUGAGGAUAUACAUAGAUUUACAUGAGGAUCACCCAUGUUCCUCUAUGUAUAUAUGUAGAAGGCAGAAGAA [JL-ex5-4.32 Malcolm mod] (Eterna round: R97, puzzle: Exclusion 5) | 26.7 | 15.7 |  |  |  | 
ACUUAUUGAGGAUAUACAUUAAAUUACAUGAGGAUCACCCAUGUUCUUCAAUGUAUAUAUGCAGAAGGCAGAAGAA [JL-ex5-4.28 Malcolm mod] (Eterna round: R97, puzzle: Exclusion 5) | 13.4 | 12.8 |  |  |  | 

Sequence | apparent KD of MS2 coat protein (input ligand: FMN 200 uM) [nM] | apparent KD of MS2 coat protein (input ligand: none) [nM] | apparent KD of MS2 coat protein [1] [nM] | apparent KD of MS2 coat protein [2] [nM] | apparent KD of MS2 coat protein [3] [nM] | apparent KD of MS2 coat protein [4] [nM]
ACUUGUUGUCCUUGAUAUUACAUGAGGAUCACCCAUGUUAUUGUGAUUAUGAUGUGUAAGUUUGUUGCUCGUCUUAU [JR_STOV1_Sub065] (Eterna round: R97, puzzle: Sensor, turn-off variant 1) | 54.3 | 60.4 |  |  |  | 
AGAAAGGAAGGAUAUACAAGAAAGCUGGGCAACGUCUCAGAACAUGAGGAUCACCCAUGUAGAAGGUCCAGGAA [Bienqura] (puzzle: Exclusion 2) |  |  | 22.6 |  |  | 
AGAAAGUCAGGAUAUCGAAGGUAGUGGAGAGGAGUGUGGUACGAGAAGGGACAUGAGGAUCACCCAUGUAGGAG [JR_Exclusion4)Sub007] (puzzle: Exclusion 4) |  |  | 31.1 |  |  | 
AGAAAUGCCCAUGGCCACAAGCUUCUUGCUUGUCUUACUACAUGAGGAUCACCCAUGUAACAUGGGCUCCUGAUAAU [Maonesra] (puzzle: Sensor v3, turn-off variant 2) |  |  | 10.1 | 11.8 | 11.1 | 
AGAAAUGCCCAUGGCCACAAGCUUUUUGCCUGUCUUACCACAUGAGGAUCACCCAUGUGACAUGGGCUCCUGAUAAU [Didilaeren] (puzzle: Sensor v3, turn-off variant 2) |  |  | 305 | 15.8 | 14.3 | 
AGAAAUGCCCGUGACCACAAGCUUUUUGCUUGUCUUACUACAUGAGGAUCACCCAUGUAACAUGGGCUCCUGACAAU [Maleisar] (puzzle: Sensor v3, turn-off variant 2) |  |  | 9.6 | 14.7 | 12.5 | 
AGAAAUGUCCAUGGCCGCAAGCUUUUUACUUGUCUUACCACAUGAGGAUCACCCAUGUGACAUGGACUCCUUAUGAU [Sensor v3, turn-off variant 2 (MOD of Oranla v.3)] (puzzle: Sensor v3, turn-off variant 2) |  |  | 43 | 17 | 14.8 | 
AGAACAUGAGGAUCACCCAUGUCGCUUUGCCUACCAAACAGGGAGGAUAUGUAGGGCGCGCACCUACAGAAGGCCCAAACGGAA [Eternabot solution 13] (Eterna round: R96, puzzle: Exclusion NG 3) | 17 | 22.5 |  |  |  | 18.5
AGAAGACAUGAGGAUCACCCAUGUAAGGAUAUUGGAGGUUAGGGAUGCUGGAGUUGGACAAGAAGGUACAGGUG [JR_Exclu1_Sub091] (puzzle: Exclusion 1) |  |  | 46.9 |  |  | 
AGAAGACAUGAGGAUCACCCAUGUAAGGAUAUUGGAGGUUAGGGAUGCUGGAGUUGGGCAAGAAGGUACAGGUG [JR_Exclu1_Sub092] (puzzle: Exclusion 1) |  |  | 49.8 | 46.9 | 81 | 
AGAAGUAGAAACCGAUCCUACAUGAGGAUCACCCAUGUAGCAAGACGUGCACGCGAAGCUCGUCAGACUACCAGAUG [salish99_TOv1_r3_017] (puzzle: Sensor v3, turn-off variant 1) |  |  | 108 | 297 | 313 | 
AGAAGUAGUAACCGAUCCUACAUGAGGAUCACCCAUGUAGCUAGACGUGCACGCGAAGCUCGUCAGACUACCAGAUG [salish99_TOv1_r3_023] (puzzle: Sensor v3, turn-off variant 1) |  |  | 273 | 298 | 212 | 
AGACGUCAAGUCAGGAUAUAGAGGCAAGUCCACCGCUAGAAGGGACAUGAGGAUCACCCAUGUAGGGUUUAGCU [Zainsoed] (puzzle: Brourd's mod of Exclusion 4) |  |  | 157 | 101 | 135 | 
AGAGAAUAGGUAGGAUAUCUUAAUAGAAAGAAUAGAGAAGGACCACAUGAGGAUCACCCAUGUGAAGUCUUGAGACUACAUGGU [Prohibition 31 - Jieux - Exclusion NG 1] (Eterna round: R96, puzzle: Exclusion NG 1) |  |  |  |  |  | 15
AGAGAAUAGUCAGGAUAUGUGAAUAGAUAGAGAACAGAAGGGACACAUGAGGAUCACCCAUGUGAAGUCUUGAGGCUGCAUGGA [Prohibition 22 - Jieux - Exclusion NG 1] (Eterna round: R96, puzzle: Exclusion NG 1) | 43.9 | 39 |  |  |  | 24.1
AGAGCACGAGGAUAUACAAGGAUAACUCGCAGAUCGUCAGUACAUGAGGAUCACCCAUGUAGAAGGUGUUAGCA [Eternabot (Original) Solution 6] (Eterna round: R97, puzzle: Exclusion 2) | 41.2 | 58.9 |  |  |  | 
AGAGGGCGAGGAUAUGCUAAAAGUGGUGCAGUUGUUCGUCGACUUGAGGAUCACCCAAGUAGAAGGCGCACUUC [Sointeer] (Eterna round: R97, puzzle: Exclusion 2) | 67.9 | 18.5 |  |  |  | 
